± gives the standard deviation of the averaged measurements.
B1: library; a variant is named by its letters at N, in order (parent)
chain: GCUGUCACCGGUGUAUUACCCUAGUGGUCGACCGGUCUGAUGAGUCUNNNNNNAGACGAAACAGC

What was measured:
[1] = variants of: B1; experiment: normalized RNA/DNA level with ligand (relative to sTRSVctl = 100) (log10 (% of sTRSVctl)); ligand: hypoxanthine (xanthine aptamer); higher = less ribozyme self-cleavage, higher mRNA level; details: ligand concentration (+) RNA-Seq: 5 mM, HEK293T, reporter: mCherry (pCS4076), ligand present: yes
In short: (§1)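 HEK293T cells received ligand, where used, 1 h before being transfected with 4 µg per 6-well well of library plasmids encoding reporter-linked ribozyme switches. After 72 h, RNA was extracted with EDTA and sequenced. RNA level was derived from RNA reads per DNA read, normalized to a spiked-in non-cleaving sequence or the top sequences, then scaled and log-transformed. Values were ×100 then log10, the top set was 25 sequences, and the minimum was 100 DNA reads.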

[2] = variants of: B1; experiment: normalized RNA/DNA level without ligand (relative to sTRSVctl = 100) (log10 (% of sTRSVctl)); ligand: hypoxanthine (xanthine aptamer); higher = less ribozyme self-cleavage, higher mRNA level; details: HEK293T, reporter: mCherry (pCS4076), ligand present: no
In short: as §1

Variant	normalized RNA/DNA level with ligand (log10) [1]	normalized RNA/DNA level without ligand (log10) [2]
CGCCUG	2 ± 0.053	1.9 ± 0.04
CGCCUA	1.98 ± 0.092	1.848 ± 0.014
CGCCUU	1.94 ± 0.033	1.92 ± 0.068
AGCGAU	1.9 ± 0.037	1.73 ± 0.076
GGCCGG	1.95 ± 0.039	1.84 ± 0.026
GGCCGC	1.879 ± 0.014	1.7 ± 0.06
GGCCGA	1.98 ± 0.038	1.854 ± 0.014
CGGCCC	1.979 ± 0.011	2.012 ± 0.0089
CGGCCU	2.03 ± 0.021	1.93 ± 0.027
CGGCCA	1.96 ± 0.056	1.95 ± 0.027
AGCGUU	1.93 ± 0.028	1.805 ± 0.011
AGCGUA	1.94 ± 0.027	1.77 ± 0.034
AGGAAU	1.906 ± 0.017	1.739 ± 0.0039
GGCCAA	1.934 ± 0.015	1.87 ± 0.022
GGCCAC	1.997 ± 0.011	1.861 ± 0.0085
GGCCAG	1.89 ± 0.026	1.67 ± 0.033
GGCCAU	1.957 ± 0.003	1.919 ± 0.018
AGCCUA	1.987 ± 0.019	1.87 ± 0.028
AGCCUC	2.01 ± 0.082	1.959 ± 0.019
CGGAGC	1.944 ± 0.019	1.67 ± 0.046
CGGAGA	1.93 ± 0.044	1.617 ± 0.012
UGCUCG	1.941 ± 0.016	1.77 ± 0.046
UGCUCC	1.972 ± 0.002	1.94 ± 0.037
UGCUCU	1.91 ± 0.042	1.949 ± 0.017

Variant	normalized RNA/DNA level with ligand (log10) [1]	normalized RNA/DNA level without ligand (log10) [2]
CGGAUG	1.993 ± 0.011	1.75 ± 0.028
CGGAUC	2.018 ± 0.0066	1.92 ± 0.028
CGGAUA	1.87 ± 0.041	1.51 ± 0.085
CGCGUC	1.97 ± 0.075	2.01 ± 0.061
CGCGUG	1.97 ± 0.068	1.73 ± 0.082
CGCGUU	1.99 ± 0.054	1.905 ± 0.0075
CGCAUG	1.93 ± 0.059	1.81 ± 0.057
CGCAUU	1.942 ± 0.0093	1.82 ± 0.036
CGCAUA	1.9 ± 0.052	1.69 ± 0.033
GGCUGG	1.9543 ± 0.0009	1.66 ± 0.048
GGCUGU	1.96 ± 0.025	1.95 ± 0.046
GGCUGC	1.92 ± 0.048	1.58 ± 0.039
GGCUGA	2.01 ± 0.032	1.87 ± 0.026
GGGACA	1.938 ± 0.016	1.802 ± 0.011
GGGACC	1.98 ± 0.069	1.86 ± 0.052
GGGACU	1.872 ± 0.0089	1.91 ± 0.024
AGCCGC	1.9 ± 0.096	1.84 ± 0.0076
AGCCGU	1.92 ± 0.03	1.69 ± 0.024
AGCUCA	1.998 ± 0.00082	1.895 ± 0.011
AGCUCU	1.96 ± 0.033	1.89 ± 0.04
AGCUCC	1.97 ± 0.14	1.95 ± 0.034
UGCGAC	1.96 ± 0.0073	1.77 ± 0.028
UGCGAG	1.868 ± 0.0049	1.658 ± 0.009
UGCGAU	1.933 ± 0.011	1.79 ± 0.081

Variant	normalized RNA/DNA level with ligand (log10) [1]	normalized RNA/DNA level without ligand (log10) [2]
UGCGAA	1.86 ± 0.021	1.724 ± 0.013
GGCGCU	1.973 ± 0.003	2.03 ± 0.022
GGCGCC	2.004 ± 0.0022	1.93 ± 0.024
GGCGCG	1.95 ± 0.028	1.81 ± 0.0088
GGGAAC	1.964 ± 0.016	1.724 ± 0.01
GGCCUC	1.99 ± 0.13	1.96 ± 0.084
GGCCUA	1.98 ± 0.063	1.98 ± 0.026
GGCCUU	1.975 ± 0.013	1.968 ± 0.011
CGCUUA	1.861 ± 0.0029	1.7 ± 0.036
CGCUUU	1.911 ± 0.01	1.859 ± 0.009
CGCUUG	1.91 ± 0.07	1.93 ± 0.076
CGCUUC	1.996 ± 0.0043	1.92 ± 0.14
AGGCUC	2.02 ± 0.024	2.01 ± 0.055
UGGCCA	1.97 ± 0.033	1.92 ± 0.046
UGGCCC	2.02 ± 0.022	1.99 ± 0.044
UGGCCU	1.98 ± 0.043	2.008 ± 0.0053
UGGCCG	2.015 ± 0.00026	1.956 ± 0.006
UGGCUA	2.009 ± 0.006	1.942 ± 0.011
UGGCUC	2.02 ± 0.051	2 ± 0.021
GGGCCC	1.95 ± 0.02	1.98 ± 0.029
GGGCCU	2.06 ± 0.045	2.014 ± 0.0022
GGGAUA	1.95 ± 0.053	1.69 ± 0.0074
GGGAUU	1.9914 ± 0.00078	1.817 ± 0.014
GGGAUC	1.94 ± 0.075	1.861 ± 0.018

Variant	normalized RNA/DNA level with ligand (log10) [1]	normalized RNA/DNA level without ligand (log10) [2]
UGCUUU	1.96 ± 0.064	1.94 ± 0.0096
UGCUUG	1.923 ± 0.019	1.85 ± 0.091
UGCUUC	1.988 ± 0.0048	1.96 ± 0.045
UGCUUA	1.937 ± 0.019	1.95 ± 0.046
AGGACA	1.89 ± 0.066	1.71 ± 0.042
CGCUCU	2.02 ± 0.061	1.93 ± 0.048
CGCUCA	2.01 ± 0.059	1.905 ± 0.012
CGCUCC	1.956 ± 0.013	1.93 ± 0.027
GGCUAC	1.933 ± 0.0082	1.79 ± 0.093
GGCUAU	1.953 ± 0.0089	1.876 ± 0.005
GGCUAG	1.812 ± 0.005	1.54 ± 0.039
GGCUAA	1.94 ± 0.046	1.86 ± 0.017
GGGCUC	1.9567 ± 0.00028	2 ± 0.093
GGGCUU	1.98 ± 0.069	1.96 ± 0.029
UGCCUU	1.939 ± 0.0041	1.9 ± 0.093
CGGAAC	1.85 ± 0.026	1.51 ± 0.072
AGGCGA	1.92 ± 0.066	1.557 ± 0.0027
AGGCGC	1.962 ± 0.0082	1.87 ± 0.031
CGCAGA	1.9 ± 0.029	1.81 ± 0.082
CGCAGG	1.82 ± 0.096	1.348 ± 0.011
CGCAGU	1.938 ± 0.0028	1.86 ± 0.026
CGCAGC	1.96 ± 0.041	1.87 ± 0.025
UGCUAA	1.92 ± 0.066	1.832 ± 0.0053
UGCUAG	1.94 ± 0.025	1.658 ± 0.0069

Variant	normalized RNA/DNA level with ligand (log10) [1]	normalized RNA/DNA level without ligand (log10) [2]
UGCUAC	1.937 ± 0.0075	1.847 ± 0.014
UGCACU	1.94 ± 0.088	1.9 ± 0.0073
UGCACG	1.923 ± 0.014	1.76 ± 0.038
UGCACC	1.92 ± 0.057	1.93 ± 0.024
AGCUAU	1.96 ± 0.012	1.825 ± 0.0081
AGCUAG	1.83 ± 0.066	1.508 ± 0.0088
AGCUAA	1.912 ± 0.0024	1.845 ± 0.013
GGCAGG	1.874 ± 0.0049	1.496 ± 0.0048
GGGCAC	1.9407 ± 0.0014	1.879 ± 0.012
CGCGCA	1.97 ± 0.063	1.81 ± 0.036
CGCGCU	1.92 ± 0.076	1.93 ± 0.062
CGCGCG	1.9548 ± 0.00063	1.78 ± 0.035
GGCGUC	1.94 ± 0.073	1.901 ± 0.014
GGCGUA	1.908 ± 0.015	1.858 ± 0.00033
GGCGUU	2.0064 ± 0.00076	1.966 ± 0.011
UGCCCC	2.011 ± 0.0086	1.9 ± 0.024
UGCCCG	1.9 ± 0.037	1.831 ± 0.014
UGCCCU	2.003 ± 0.013	1.94 ± 0.028
AGGAUU	1.934 ± 0.0076	1.83 ± 0.075
AGGAUC	1.99 ± 0.046	1.944 ± 0.013

From the supplement of paper PMC6757056
